Results from patent publication US12134663B2, “Cationic peptides for activating Lck” (Interk Peptide Therapeutics Limited, priority 2018, dated 2024).
Entries after “also recorded” stand apart in the source; their conditions may differ. Where no end group is shown, it is not given here. [ ]: non-standard residue; d: D form. 2Adod = 2-amino-dodecanoic acid; Orn = NCCC[C@H](N)C(=O)O

target: T1, Lck (Homo sapiens, UniProt P06239); assay: Lck Activity above control (1 µM); conditions: not given
T1 construct: purchased Eurofins Pharma Discovery Services UK Limited
Experimental: Table printed on a drawing sheet, FIG. 4
(§1) Head of the field: Lck Activity above control (1 µM)
First copying reader's note: The first column holds the sequence together with the SEQ ID NO and peptide code in one cell; activity was measured at 1 µM peptide.
(§2) Where the first naming reader finds the target: head: Lck Activity above control (1 µM)

Substance	Lck Activity above control (1 µM) [%]
r s k a k n p l y - r r r r r r r r r (SEQ ID NO: 129, IKD14800) ([dR][dS][dK][dA][dK][dN][dP][dL][dY][dR][dR][dR][dR][dR][dR][dR][dR][dR])	490
RSKAK-RRR (SEQ ID NO: 28, IK50300) (RSKAKRRR)	0
RSKAKNPLY-RRRR (SEQ ID NO: 32, IK14300) (RSKAKNPLYRRRR)	0
RSKAKNPLYR (SEQ ID NO: 31, IK14000)	0
IAGQ-RSKAKNPLY-RRRRRRRRR (SEQ ID NO: 40, IKM14800) (IAGQRSKAKNPLYRRRRRRRRR)	454
RSKAK-R (SEQ ID NO: 26, IK50100) (RSKAKR)	0
RSKAKNPLY-RRRRRRRRR-GPLG (SEQ ID NO: 41, IK148MP9) (RSKAKNPLYRRRRRRRRRGPLG)	320
RSKAKNPLY-KKKKKKKKK (SEQ ID NO: 44, IK94K90)	49
RSKAKNPLY (SEQ ID NO: 30, IK94000)	0
RSKAK-RRRR (SEQ ID NO: 29, IK50400) (RSKAKRRRR)	0

tested on: Fgr; assay: Lck Activity above control (1 µM) | Fgr; conditions: not given
Experimental: Table printed on a drawing sheet, FIG. 2
Head of the field: Lck Activity above control (1 µM) | Fgr
First copying reader's note: Kinase activity above control for each Src family kinase at 1 µM peptide; the cell for IK00800/Fgr is printed as '%' without a digit.
Where the first naming reader finds the target: head: Lck Activity above control (1 µM) | Fgr

Substance	Lck Activity above control (1 µM) | Fgr [%]
KKKKKKKKKK [10Lys]	0
rskaknplyrrrrrrrrr ([dR][dS][dK][dA][dK][dN][dP][dL][dY][dR][dR][dR][dR][dR][dR][dR][dR][dR]) [IKD14800]	0

target: T1, Lck; assay: Lck Activity above control (1µM); conditions: not given
Experimental: First copying reader's note: The Peptide column holds the sequence together with the SEQ ID NO and the peptide code; the activity was measured at 1µM peptide, as the head states.

Substance	Lck Activity above control (1 µM) [%]
RRRRRRRRRRRRRR (SEQ ID NO: 9, IK01400)	351
RSKAKNPLYR-RRRRRRRR-(2Adod)4-NH2 (SEQ ID NO: 65, IK14804) (RSKAKNPLYRRRRRRRRR-{2Adod-2Adod-2Adod-2Adod-NH2})	468
RVKVKVVVVR-RRRRRRRR-(2Adod)4-NH2 (SEQ ID NO: 66, IK15804) (RVKVKVVVVRRRRRRRRR-{2Adod-2Adod-2Adod-2Adod-NH2})	335
KKKKKKKK-HHHHHHHHHH (SEQ ID NO: 18, IK00K10)	70
RRRRRR (SEQ ID NO: 3, IK00600)	0
HHHHHHHHHH (SEQ ID NO: 14, 10His)	0
DDDDDDDDD-NH2 (SEQ ID NO: 21, IKD9)	0
RSKAKNPLY-RRRRRRRRR-NH2 (SEQ ID NO: 24, IK14800) (RSKAKNPLYRRRRRRRRR-NH2)	377
RRRRRRRRRRRRRR-OH (SEQ ID NO: 11, IK014OH)	156
RRRRR (SEQ ID NO: 2, IK00500)	0
RRRRRRRRRRRR (SEQ ID NO: 8, IK01200)	401
DSEAENPLY-DDDDDDDDD-NH2 (SEQ ID NO: 23, IKDE800) (DSEAENPLYDDDDDDDDD-NH2)	0
RRRRRRRR-HHHHHHHHHH (SEQ ID NO: 19, IK00810) (RRRRRRRRHHHHHHHHHH)	259
RRRR (SEQ ID NO: 1, IK00400)	0
RRRRRRRRRR (SEQ ID NO: 7, IK00100)	389
HHHHH-RRRRRRRRR-HHHHH (SEQ ID NO: 17, IK05950) (HHHHHRRRRRRRRRHHHHH)	286
RRRRRRRR (SEQ ID NO: 4, IK00800)	126
OrnOrnOrnOrnOrnOrnOrnOrnOrnOrn (SEQ ID NO: 15, 10 Orn)	13
HHH-RRRRRRRRR-HHH (SEQ ID NO: 16, IK03930) (HHHRRRRRRRRRHHH)	386
RRRRRRRRRRRRRRRRRRRR (SEQ ID NO: 12, IK00200) (RRRRRRRRRRRRRRRRRRRRR)	279

target: T1, Lck; assay: Lck Activity above control (1 µM); conditions: not given; remark: another data set of the same source
Experimental: Table printed on a drawing sheet, FIG. 5
as §1
First copying reader's note: The Peptide column holds the sequence together with its SEQ ID NO and IK code in brackets; the activity was measured at 1 µM peptide and the % sign stands in the cells.
as §2

Substance	Lck Activity above control (1 µM) [%]
RSKAKNPLY-RRRRRRRRR-HHHHHHHHHHHH (SEQ ID NO: 49, IK14820) (RSKAKNPLYRRRRRRRRRHHHHHHHHHHHH)	556
RSKAKNPLY-RKRKRKRKRK (SEQ ID NO: 54, IK94RK0) (RSKAKNPLYRKRKRKRKRK)	456
RVKVKVVVV-RRRRR (SEQ ID NO: 56, IK15400) (RVKVKVVVVRRRRR)	382
Branched < RSKAKNPLY-RRRRRRRRR-HHHHHHHHHH (SEQ ID NO: 48, Br IK14810) (RSKAKNPLYRRRRRRRRRHHHHHHHHHH; also: branched (1)..(28))	596
RVKVKVVVV (SEQ ID NO: 55, IK95000)	518
KEKLKNPLFK-RRRRRRRR-HHHHHHHHHH (SEQ ID NO: 64, IKB2810) (KEKLKNPLFKRRRRRRRRHHHHHHHHHH)	379
RVKVKVVVV-RRRRRRRR (SEQ ID NO: 57, IK15700) (RVKVKVVVVRRRRRRRR)	512
RVKVKVVVV-RRRRRRRRR-HHHHHHHHHH (SEQ ID NO: 60, IK50810) (RVKVKVVVVRRRRRRRRRHHHHHHHHHH)	778
HHHHH-RSKAKNPLY-RRRRRRRRR-HHHHH (SEQ ID NO: 53, IK51455) (HHHHHRSKAKNPLYRRRRRRRRRHHHHH)	685
HHHHH-RRRRRRRRR-HHHHH-RSKAKNPLYR (SEQ ID NO: 51, IK59514) (HHHHHRRRRRRRRRHHHHHRSKAKNPLYR)	441
RSKAKNPLY-RRRRRRRRR-HHHHH (SEQ ID NO: 46, IK14510) (RSKAKNPLYRRRRRRRRRHHHHH)	524
RVKVKVVVV-RRRRRRRRR (SEQ ID NO: 58, IK15800) (RVKVKVVVVRRRRRRRRR)	479
RVKVKVVVV-RHRHRHRHRHRHRHRH-HH (SEQ ID NO: 61, IK52820) (RVKVKVVVVRHRHRHRHRHRHRHRHHH)	408
RRRRRRRR-RVKVKVVVV-R (SEQ ID NO: 59, IK80150) (RRRRRRRRRVKVKVVVVR)	520
RRRRRRRR-HHHHHHHHHH-RSKAKNPLYR (SEQ ID NO: 52, IK81140) (RRRRRRRRHHHHHHHHHHRSKAKNPLYR)	567

target: T1, Lck; assay: In vitro Lck activation kinase study (Eurofins); assay type: biochemical; conditions: peptide 1 μM where stated
Experimental: The ability of polypeptides of the present invention to activate Lck was examined in vitro. Lck is member of the Src family of tyrosine kinases. […] All results in are percentage Lck activity relative to control (100%).
Test polypeptides were assessed at a concentration of 1.0 μM.
The ability of polypeptides of the present invention to activate Src family kinases was examined in vitro. Kinase activation studies utilising peptides were carried out as described in Example 1, and all kinase activity values are shown as percentage relative to control.
The ability of polypeptides comprising both lysine and arginine to activate Lck in vitro was examined. Lck activation studies utilising peptides were carried out as described in Example 1, and all kinase activity values are shown as percentage relative to control.
Target sequence in this assay (P06239 whole entry): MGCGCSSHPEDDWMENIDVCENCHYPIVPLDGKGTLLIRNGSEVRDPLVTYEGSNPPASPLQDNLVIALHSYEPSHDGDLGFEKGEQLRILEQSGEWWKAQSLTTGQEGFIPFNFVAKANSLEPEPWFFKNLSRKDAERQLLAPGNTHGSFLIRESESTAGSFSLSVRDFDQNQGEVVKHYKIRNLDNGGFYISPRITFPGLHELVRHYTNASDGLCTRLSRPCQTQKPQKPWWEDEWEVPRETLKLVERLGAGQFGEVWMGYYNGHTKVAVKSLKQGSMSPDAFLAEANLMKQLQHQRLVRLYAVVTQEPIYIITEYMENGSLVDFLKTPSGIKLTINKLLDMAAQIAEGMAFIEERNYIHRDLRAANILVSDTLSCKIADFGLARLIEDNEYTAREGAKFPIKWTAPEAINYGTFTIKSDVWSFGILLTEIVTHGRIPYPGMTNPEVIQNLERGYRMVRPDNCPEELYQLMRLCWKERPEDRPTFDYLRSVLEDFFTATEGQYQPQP

Substance	Lck activation (in words)
RRRR [SEQ ID NO: 119]	do not activate Lck
HHHHHHHHHH [10His]	No increase in Lck activity; also recorded: did not induce any activation of Lck
RSKAKNPLY-RRRR (RSKAKNPLYRRRR) [SEQ ID NO: 32]	no Lck activation
RVKVKVVVV [IK95000]	substantial increases in Lck activity
DDDDDDDDD [IKD9]	does not activate Lck
RRRRR [SEQ ID NO: 2]	do not activate Lck
RSKAK [IK5000]	no or negligible Lck activation
[Orn][Orn][Orn][Orn][Orn][Orn][Orn][Orn][Orn][Orn] [10 Orn]	Negligible Lck activity
RRRRRR [SEQ ID NO: 3]	do not activate Lck
Branched < RSKAKNPLY-RRRRRRRRR-HHHHHHHHHH (RSKAKNPLYRRRRRRRRRHHHHHHHHHH; also: branched (1)..(28)) [Br IK14810]	Substantially increased Lck activity

same assay, conditions: peptide 1 μM where stated; listed as DDDDDDDDD

Substance	Lck activation (in words)
DDDDDDDDD [IKD9]	does not increase the activity of Lck

same assay, conditions: peptide 1 μM; relative to control

Substance	increase in Lck activity [%]
RVKVK-RRRRRRRRR-HHHHHHHHHH (RVKVKRRRRRRRRRHHHHHHHHHH) [IK50810]	778
